These proteins were tested on O=CCO (assay: HPLC of erythrulose formed, Michaelis-Menten fit). Settings: 50 mM Li-HPA (saturating co-substrate), 4-80 mM GA, 2.4 mM ThDP, 9 mM MgCl2, 50 mM Tris-HCl pH 7.0, 22 °C.
Type: biochemical, Escherichia coli
From the text: HPLC of erythrulose formed, Michaelis-Menten fit on Escherichia coli transketolase (TK); wild-type E. coli TK

Protein	Km	kcat	kcat/Km
Escherichia coli transketolase (TK); wild-type E. coli TK (Escherichia coli K-12) (protein, full-length tktA product, N-terminal His6-tag (kept, no cleavage told), expressed in E. coli XL10-Gold from plasmid pQR791, Ni-NTA purified, dialysed into ThDP and MgCl2 (holo form), homodimer) MSSRKELANAIRALSMDAVQKAKSGHPGAPMGMADIAEVLWRDFLKHNPQNPSWADRDRFVLSNGHGSMLIYSLLHLTGYDLPMEELKNFRQLHSKTPGHPEVGYTAGVETTTGPLGQGIANAVGMAIAEKTLAAQFNRPGHDIVDHYTYAFMGDGCMMEGISHEVCSLAGTLKLGKLIAFYDDNGISIDGHVEGWFTDDTAMRFEAYGWHVIRDIDGHDAASIKRAVEEARAVTDKPSLLMCKTIIGFGSPNKAGTHDSHGAPLGDAEIALTREQLGWKYAPFEIPSEIYAQWDAKEAGQAKESAWNEKFAAYAKAYPQEAAEFTRRMKGEMPSDFDAKAKEFIAKLQANPAKIASRKASQNAIEAFGPLLPEFLGGSADLAPSNLTLWSGSKAINEDAAGNYIHYGVREFGMTAIANGISLHGGFLPYTSTFLMFVEYARNAVRMAALMKQRQVMVYTHDSIGLGEDGPTHQPVEQVASLRVTPNMSTWRPCDQVESAVAWKYGVERQDGPTALILSRQNLAQQERTEEQLANIARGGYVLKDCAGQPELIFIATGSEVELAVAAYEKLTAEGVKARVVSMPSTDAFDKQDAAYRESVLPKAVTARVAVEAGIADYWYKYVGLNGAIVGMTTFGESAPAELLFEEFGFTVDNVVAKAKELL	20.5 (1.3) mM	62.3 s⁻¹	3040 M⁻¹ s⁻¹
Escherichia coli transketolase (TK); wild-type E. coli TK (Escherichia coli K-12; H192P) (protein, full-length tktA product, N-terminal His6-tag (kept, no cleavage told), expressed in E. coli XL10-Gold from plasmid pQR791, Ni-NTA purified, dialysed into ThDP and MgCl2 (holo form), homodimer) MSSRKELANAIRALSMDAVQKAKSGHPGAPMGMADIAEVLWRDFLKHNPQNPSWADRDRFVLSNGHGSMLIYSLLHLTGYDLPMEELKNFRQLHSKTPGHPEVGYTAGVETTTGPLGQGIANAVGMAIAEKTLAAQFNRPGHDIVDHYTYAFMGDGCMMEGISHEVCSLAGTLKLGKLIAFYDDNGISIDGPVEGWFTDDTAMRFEAYGWHVIRDIDGHDAASIKRAVEEARAVTDKPSLLMCKTIIGFGSPNKAGTHDSHGAPLGDAEIALTREQLGWKYAPFEIPSEIYAQWDAKEAGQAKESAWNEKFAAYAKAYPQEAAEFTRRMKGEMPSDFDAKAKEFIAKLQANPAKIASRKASQNAIEAFGPLLPEFLGGSADLAPSNLTLWSGSKAINEDAAGNYIHYGVREFGMTAIANGISLHGGFLPYTSTFLMFVEYARNAVRMAALMKQRQVMVYTHDSIGLGEDGPTHQPVEQVASLRVTPNMSTWRPCDQVESAVAWKYGVERQDGPTALILSRQNLAQQERTEEQLANIARGGYVLKDCAGQPELIFIATGSEVELAVAAYEKLTAEGVKARVVSMPSTDAFDKQDAAYRESVLPKAVTARVAVEAGIADYWYKYVGLNGAIVGMTTFGESAPAELLFEEFGFTVDNVVAKAKELL	18.0 (1.2) mM	65.5 s⁻¹	3640 M⁻¹ s⁻¹
Escherichia coli transketolase (TK); wild-type E. coli TK (Escherichia coli K-12; I189H) (protein, full-length tktA product, N-terminal His6-tag (kept, no cleavage told), expressed in E. coli XL10-Gold from plasmid pQR791, Ni-NTA purified, dialysed into ThDP and MgCl2 (holo form), homodimer) MSSRKELANAIRALSMDAVQKAKSGHPGAPMGMADIAEVLWRDFLKHNPQNPSWADRDRFVLSNGHGSMLIYSLLHLTGYDLPMEELKNFRQLHSKTPGHPEVGYTAGVETTTGPLGQGIANAVGMAIAEKTLAAQFNRPGHDIVDHYTYAFMGDGCMMEGISHEVCSLAGTLKLGKLIAFYDDNGISHDGHVEGWFTDDTAMRFEAYGWHVIRDIDGHDAASIKRAVEEARAVTDKPSLLMCKTIIGFGSPNKAGTHDSHGAPLGDAEIALTREQLGWKYAPFEIPSEIYAQWDAKEAGQAKESAWNEKFAAYAKAYPQEAAEFTRRMKGEMPSDFDAKAKEFIAKLQANPAKIASRKASQNAIEAFGPLLPEFLGGSADLAPSNLTLWSGSKAINEDAAGNYIHYGVREFGMTAIANGISLHGGFLPYTSTFLMFVEYARNAVRMAALMKQRQVMVYTHDSIGLGEDGPTHQPVEQVASLRVTPNMSTWRPCDQVESAVAWKYGVERQDGPTALILSRQNLAQQERTEEQLANIARGGYVLKDCAGQPELIFIATGSEVELAVAAYEKLTAEGVKARVVSMPSTDAFDKQDAAYRESVLPKAVTARVAVEAGIADYWYKYVGLNGAIVGMTTFGESAPAELLFEEFGFTVDNVVAKAKELL	18.0 (0.8) mM	–	–
Escherichia coli transketolase (TK); wild-type E. coli TK (Escherichia coli K-12; A282P) (protein, full-length tktA product, N-terminal His6-tag (kept, no cleavage told), expressed in E. coli XL10-Gold from plasmid pQR791, Ni-NTA purified, dialysed into ThDP and MgCl2 (holo form), homodimer) MSSRKELANAIRALSMDAVQKAKSGHPGAPMGMADIAEVLWRDFLKHNPQNPSWADRDRFVLSNGHGSMLIYSLLHLTGYDLPMEELKNFRQLHSKTPGHPEVGYTAGVETTTGPLGQGIANAVGMAIAEKTLAAQFNRPGHDIVDHYTYAFMGDGCMMEGISHEVCSLAGTLKLGKLIAFYDDNGISIDGHVEGWFTDDTAMRFEAYGWHVIRDIDGHDAASIKRAVEEARAVTDKPSLLMCKTIIGFGSPNKAGTHDSHGAPLGDAEIALTREQLGWKYPPFEIPSEIYAQWDAKEAGQAKESAWNEKFAAYAKAYPQEAAEFTRRMKGEMPSDFDAKAKEFIAKLQANPAKIASRKASQNAIEAFGPLLPEFLGGSADLAPSNLTLWSGSKAINEDAAGNYIHYGVREFGMTAIANGISLHGGFLPYTSTFLMFVEYARNAVRMAALMKQRQVMVYTHDSIGLGEDGPTHQPVEQVASLRVTPNMSTWRPCDQVESAVAWKYGVERQDGPTALILSRQNLAQQERTEEQLANIARGGYVLKDCAGQPELIFIATGSEVELAVAAYEKLTAEGVKARVVSMPSTDAFDKQDAAYRESVLPKAVTARVAVEAGIADYWYKYVGLNGAIVGMTTFGESAPAELLFEEFGFTVDNVVAKAKELL	17.6 (2.1) mM	45.5 s⁻¹	2580 M⁻¹ s⁻¹
Escherichia coli transketolase (TK); wild-type E. coli TK (Escherichia coli K-12; A282P/H192P) (protein, full-length tktA product, N-terminal His6-tag (kept, no cleavage told), expressed in E. coli XL10-Gold from plasmid pQR791, Ni-NTA purified, dialysed into ThDP and MgCl2 (holo form), homodimer) MSSRKELANAIRALSMDAVQKAKSGHPGAPMGMADIAEVLWRDFLKHNPQNPSWADRDRFVLSNGHGSMLIYSLLHLTGYDLPMEELKNFRQLHSKTPGHPEVGYTAGVETTTGPLGQGIANAVGMAIAEKTLAAQFNRPGHDIVDHYTYAFMGDGCMMEGISHEVCSLAGTLKLGKLIAFYDDNGISIDGPVEGWFTDDTAMRFEAYGWHVIRDIDGHDAASIKRAVEEARAVTDKPSLLMCKTIIGFGSPNKAGTHDSHGAPLGDAEIALTREQLGWKYPPFEIPSEIYAQWDAKEAGQAKESAWNEKFAAYAKAYPQEAAEFTRRMKGEMPSDFDAKAKEFIAKLQANPAKIASRKASQNAIEAFGPLLPEFLGGSADLAPSNLTLWSGSKAINEDAAGNYIHYGVREFGMTAIANGISLHGGFLPYTSTFLMFVEYARNAVRMAALMKQRQVMVYTHDSIGLGEDGPTHQPVEQVASLRVTPNMSTWRPCDQVESAVAWKYGVERQDGPTALILSRQNLAQQERTEEQLANIARGGYVLKDCAGQPELIFIATGSEVELAVAAYEKLTAEGVKARVVSMPSTDAFDKQDAAYRESVLPKAVTARVAVEAGIADYWYKYVGLNGAIVGMTTFGESAPAELLFEEFGFTVDNVVAKAKELL	23.3 (1.4) mM	81.2 s⁻¹	3480 M⁻¹ s⁻¹
Escherichia coli transketolase (TK); wild-type E. coli TK (Escherichia coli K-12; D143K) (protein, full-length tktA product, N-terminal His6-tag (kept, no cleavage told), expressed in E. coli XL10-Gold from plasmid pQR791, Ni-NTA purified, dialysed into ThDP and MgCl2 (holo form), homodimer) MSSRKELANAIRALSMDAVQKAKSGHPGAPMGMADIAEVLWRDFLKHNPQNPSWADRDRFVLSNGHGSMLIYSLLHLTGYDLPMEELKNFRQLHSKTPGHPEVGYTAGVETTTGPLGQGIANAVGMAIAEKTLAAQFNRPGHKIVDHYTYAFMGDGCMMEGISHEVCSLAGTLKLGKLIAFYDDNGISIDGHVEGWFTDDTAMRFEAYGWHVIRDIDGHDAASIKRAVEEARAVTDKPSLLMCKTIIGFGSPNKAGTHDSHGAPLGDAEIALTREQLGWKYAPFEIPSEIYAQWDAKEAGQAKESAWNEKFAAYAKAYPQEAAEFTRRMKGEMPSDFDAKAKEFIAKLQANPAKIASRKASQNAIEAFGPLLPEFLGGSADLAPSNLTLWSGSKAINEDAAGNYIHYGVREFGMTAIANGISLHGGFLPYTSTFLMFVEYARNAVRMAALMKQRQVMVYTHDSIGLGEDGPTHQPVEQVASLRVTPNMSTWRPCDQVESAVAWKYGVERQDGPTALILSRQNLAQQERTEEQLANIARGGYVLKDCAGQPELIFIATGSEVELAVAAYEKLTAEGVKARVVSMPSTDAFDKQDAAYRESVLPKAVTARVAVEAGIADYWYKYVGLNGAIVGMTTFGESAPAELLFEEFGFTVDNVVAKAKELL	16.1 (1.2) mM	48.1 s⁻¹	2990 M⁻¹ s⁻¹

Source: publication PMC5286519, “Two strategies to engineer flexible loops for improved enzyme thermostability” (Scientific Reports, 2017)
